Results from the supplement of paper PMC10567573.

B1: RTP4 (parent)
chain: TYWEHWTSQGQVRMRLFGQRCQKC

Variants of: B1
Experiment: protein stability index of a GFP-peptide fusion (GPS, HEK-293T) (PSI 1-6); higher = more stable
Details: c terminus: a fixed tail appended
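Note: lentivirally expressed fusions sorted by FACS into six bins by GFP to DsRed ratio, PSI derived from sequencing read proportions per bin multiplied by bin number.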

Protein stability index: each site, then its substitutions
C21: A 1.94, L 2.4, Q 2.12, M 1.7, K 2.45, I 1.98, D 2.75, E 2.46, Y 1.81, N 2.15, P 3.25, T 1.78, H 2.23, G 2.46
Y2: P 2.1, K 2.19, H 1.99, M 2.39, F 1.32, G 3.25, N 2.49, A 2.35, I 1.74, E 2.98, W 1.53, C 2.69, T 2.46
Q11: A 1.84, D 2.41, G 2.64, S 2.59, H 1.65, N 2.01, I 2.31, Y 1.58, C 3.14, M 2.4, L 2.02, K 2.48, P 2.14
Q22: N 1.71, V 1.36, I 1.52, W 4.47, S 1.33, P 1.68, H 1.69, T 1.94, L 2.36, K 1.61, A 2.06
Q19: T 1.05, I 2.31, G 1.45, A 1.98, C 2.9, W 2.6, L 1.04, H 2.6, K 1.8, V 2.23, S 1.61, N 1.58, R 1.46, Y 1.03, E 1.62, P 1.25, D 1.97
K23: T 1.07, C 1.63, A 2.52, R 1.4, E 1.79, Q 1.92, P 1.65, S 1.48, G 1.15, Y 1.67
G10: W 2.07, I 2.47, H 1.76, R 1.69, A 1.33, Q 1.8, C 1.87, M 1.68, S 2.39, D 2.21, Y 1.92, T 2.27, F 2.53
T7: H 1.96, S 1.79, A 1.53, C 3.39, N 1.76, D 1.86, R 1.98, Q 1.77, L 1.61, V 1.93, Y 1.2, F 1.21, K 2.04, W 2.06
Q9: V 2.5, E 2.02, T 1.8, R 2.24, K 2.17, F 1.77, I 2.08, W 1.69, A 1.95, C 1.48, P 1.6, G 1.27, D 1.4
T1: V 1.86, E 1.36, A 1.19, D 1.82, Y 2.21, W 2.35, H 2.48, S 2.18, C 2.67, G 2.81, L 1.88
R15: M 2.09, D 2.71, Q 1.86, L 1.97, T 1.7, A 2.06, P 1.87, K 2.31, N 2.1, C 3.05, F 1.75, I 2.12, E 2.07
H5: N 1.59, G 1.62, T 2.12, D 2.07, Y 1.58, A 2.43, P 3.28, W 1.16, E 2.19, Q 2.43, M 1.53, R 1.38
R13: L 1.69, G 1.65, N 1.54, W 2.11, S 1.59, E 1.74, H 2.4, P 1.92, D 2.04, I 2.76, C 2.78, V 1.65
F17: M 2.37
